The source of these data is patent publication US20050266562.

For data set [1], the target named is Sp3 (UniProt Q02447). The experiment in a line: cell_activity. The following applies: luciferase induction in Drosophila cells.
Data set [2] has as its target Sp1 (UniProt P08047). Put plainly: cell_activity. The following applies: luciferase induction in Drosophila cells.

Sequence of Sp1 (P08047 2-785): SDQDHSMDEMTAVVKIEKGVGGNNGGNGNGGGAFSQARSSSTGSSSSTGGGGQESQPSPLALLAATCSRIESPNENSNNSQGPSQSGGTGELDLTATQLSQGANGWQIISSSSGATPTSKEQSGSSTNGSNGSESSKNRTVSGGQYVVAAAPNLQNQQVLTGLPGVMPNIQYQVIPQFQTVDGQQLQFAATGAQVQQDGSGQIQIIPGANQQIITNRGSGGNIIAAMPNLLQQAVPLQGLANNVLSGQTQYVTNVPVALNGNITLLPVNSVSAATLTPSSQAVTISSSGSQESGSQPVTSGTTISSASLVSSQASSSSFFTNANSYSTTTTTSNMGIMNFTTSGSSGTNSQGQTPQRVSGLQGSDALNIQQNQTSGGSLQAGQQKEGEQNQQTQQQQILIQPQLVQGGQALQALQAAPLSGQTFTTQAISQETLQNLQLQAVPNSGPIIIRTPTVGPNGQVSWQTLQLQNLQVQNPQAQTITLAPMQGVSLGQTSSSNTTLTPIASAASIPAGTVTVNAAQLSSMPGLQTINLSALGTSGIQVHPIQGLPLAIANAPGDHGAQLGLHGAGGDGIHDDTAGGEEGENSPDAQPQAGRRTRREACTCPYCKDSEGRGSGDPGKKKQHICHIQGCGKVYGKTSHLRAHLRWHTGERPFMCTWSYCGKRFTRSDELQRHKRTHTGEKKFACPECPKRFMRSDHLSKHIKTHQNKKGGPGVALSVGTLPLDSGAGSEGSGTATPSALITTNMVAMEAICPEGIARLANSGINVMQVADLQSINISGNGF
Sequence of Sp3 (Q02447 whole entry): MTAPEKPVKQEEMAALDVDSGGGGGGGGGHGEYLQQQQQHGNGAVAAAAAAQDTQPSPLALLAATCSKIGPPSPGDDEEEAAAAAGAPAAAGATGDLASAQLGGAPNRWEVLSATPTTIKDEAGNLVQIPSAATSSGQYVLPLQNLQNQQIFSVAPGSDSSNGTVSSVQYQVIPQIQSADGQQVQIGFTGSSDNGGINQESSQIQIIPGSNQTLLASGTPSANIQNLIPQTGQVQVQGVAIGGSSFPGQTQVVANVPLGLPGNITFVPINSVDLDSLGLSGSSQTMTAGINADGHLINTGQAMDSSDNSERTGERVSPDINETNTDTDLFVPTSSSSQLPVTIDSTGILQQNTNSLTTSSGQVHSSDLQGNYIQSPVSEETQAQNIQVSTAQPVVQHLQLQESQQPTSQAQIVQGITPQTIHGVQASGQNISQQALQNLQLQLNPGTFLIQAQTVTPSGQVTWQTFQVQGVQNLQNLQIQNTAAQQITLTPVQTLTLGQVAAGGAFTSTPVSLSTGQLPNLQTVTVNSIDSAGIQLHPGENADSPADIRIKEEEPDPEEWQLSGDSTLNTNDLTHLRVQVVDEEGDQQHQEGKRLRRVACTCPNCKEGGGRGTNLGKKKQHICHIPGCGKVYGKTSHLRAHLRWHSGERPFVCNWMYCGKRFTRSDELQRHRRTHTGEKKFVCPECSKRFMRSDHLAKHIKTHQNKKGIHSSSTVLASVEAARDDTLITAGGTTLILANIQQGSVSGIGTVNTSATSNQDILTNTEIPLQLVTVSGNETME

On to CD11c promoter -196/+30 (luc reporter), for which the results for the activity in data set [1] and in data set [2] were 18.9 fold and 19.5 fold, respectively.

“CTGTATTGTTGTACAGAACTGCAGTTTGTTCTTTGTTATTTATTGTAAAGACAGGGTCTGGCTATGTTGCCTAGGCTGGTCTCGAACTGTTGGCCTCAAGCAATCCACCTGCCAAGCTCTGGGACCACAGGCATGAGCCATGGCATCTGATCKGTAGTTTGATCTTATTTCTTGCTGAGTAGTAGCCCATGGCATGACTTTATTATTTTGGGTGTCCATTCTCCTCTGGAGGGGCTCTGCTTTTTGAAACCACACCCTGGCCTAGCTCCCCTTCTCCCTGCCTCTCTGCAGGCTCACATCCACATGCCAAGACCTCTGCAGCCATTCTGCTTCCTGTCCTTCCACTCCTGTGGGACCTCAGAGAGCTACGGGGCTCCCTGGGTACCAACTGGCTCCTGAGGCCTGGGGGAGGGTGGTCTTCTGGGAGAAGGAAGCCAGGTCCCTGCAGGTTGTGGAGGGGGACAGAATGAGGGTTTTTCCCCAGGATGTTGTTGGCCCCTGCCCCCACTTCTGTTCCATAATTAACCACGCCCCTCCTACCCACTGTGCCCCTCTTCCTGCTGTGTGGAGGCCCTGAATCATTATTTTAACTACCCCCTGGGAGGGTGAGCACCTTCTGTGCTCTGTCCCCAACCTTCCACTTCCCCTCAACGCGCTGCTCAGGG (double strand) [CD11d promoter -591/+74 (luc reporter)]” had an activity in data set [2] of 4.1 fold.
